Holding throughout (details): both partners purified
Assay [1] has as its target T1, histone H3/H4 tetramer (UniProt P61830 1-136; P02309 1-103). The assay can be described thus: native gel or EMSA; 0.5 uM Cdc45-7HIS mixed with 0-2 uM H3/H4 tetramer, 15 min at 30 °C; 25 mM HEPES-KOH pH 7.5, 1 mM EDTA, 10% glycerol, 0.05% Tween 20, 750 mM KCl; loss of the free Cdc45 band on 5-20% Tris-Glycine gel, Coomassie; apparent. On the technique in general: Mobility shift assays separate free from complexed probe on a gel.

For assay [2], the target named is T1, histone H3/H4 tetramer. The assay can be described thus: native gel or EMSA; 0.5 uM Cdc45-7HIS mixed with 0-2 uM H3/H4 tetramer, 15 min at 30 °C; 25 mM HEPES-KOH pH 7.5, 1 mM EDTA, 10% glycerol, 0.05% Tween 20, 150 mM KCl; loss of the free Cdc45 band on 5-20% Tris-Glycine gel, Coomassie; apparent.
For assay [3], the target named is T1, histone H3/H4 tetramer. The assay can be described thus: native gel or EMSA; 0.5 uM Cdc45-7HIS mixed with 0-2 uM H3/H4 tetramer, 15 min at 30 °C; 25 mM HEPES-KOH pH 7.5, 1 mM EDTA, 10% glycerol, 0.05% Tween 20, 300 mM KCl; loss of the free Cdc45 band on 5-20% Tris-Glycine gel, Coomassie; apparent.

B1: Cdc45-7HIS (budding yeast Cdc45, wild type) (natural protein)
chain: ISQFSEAYNKILRNSSSHSSCQLVIFVSCLNIDALCATKMLSLLFKKQLVQSQIVPIFGYSELRRHYSQLDDNINSLLLVGFGGVIDLEAFLEIDPQEYVIDTDEKSGEQSFRRDIYVLDAHRPWNLDNIFGSQIIQCFDDGTVDDTLGEQKEAYYKLLELDEESGDDELSGDENDNNGGDDEATDADEVTDEDEEDEDETISNKRGNSSIGPNDLSKRKQRKKQIHEYEGVLEEYYSQGTTVVNSISAQIYSLLSAIGETNLSNLWLNILGTTSLDIAYAQVYNRLYPLLQDEVKRLTPSSRNSVKTPDTLTLNIQPDYYLFLLRHSSLYDSFYYSNYVNAKLSLWNENGKKRLHKMFARMGIPLSTAQETWLYMDHSIKRELGIIFDKNLDRYGLQDIIRDGFVRTLGYRGSISASEFVEALTALLEVGNSTDKDSVKINNDNNDDTDGEEEEDNSAQKLTNLRKRWVSNFWLSWDALDDRKVELLNRGIQLAQDLQRAIFNTGVAILEKKLIKHLRIYRLCVLQDGPDLDLYRNPLTLLRLGNWLIECCAESEDKQLLPMVLASIDENTDTYLVAGLTPRYPRGLDTIHTKKPILNNFSMAFQQITAETDAKVRIDNFESSIIEIRREDLSPFLEKLTLSGLL
notes: Cdc45, budding yeast; also called WT; source: Escherichia coli, purified
In the case of B1, the results for the Kd with histone H3/H4 tetramer [1], in the assay with histone H3/H4 tetramer [2] and with histone H3/H4 tetramer [3] were 216 nM, 68 nM and 90 nM, respectively.

Source of the values: article PMC11531469, “Molecular mechanism of parental H3/H4 recycling at a replication fork” (Nature Communications, 2024).
